Measured values as given in patent US20020119165A1 (University of Pennsylvania, published 2002).
Ends that are not written are not given here.

Biological target: T1, HveA(200t) (UniProt Q92956 39-200, limits assumed)
T1 construct: Immobilized on microtiter wells in all ELISAs; also called soluble form of HveA; HVEM; not shown: C-terminal histidine tag
T1 sequence (looked up): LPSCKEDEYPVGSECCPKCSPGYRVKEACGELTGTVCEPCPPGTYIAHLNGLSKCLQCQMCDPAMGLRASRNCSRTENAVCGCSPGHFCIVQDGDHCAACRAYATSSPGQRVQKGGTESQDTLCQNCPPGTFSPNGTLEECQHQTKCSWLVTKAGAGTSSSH
Assay: inferred from competition ELISA on immobilized HveA

B1: BP-2 (3, 9 Ala) (peptide)
peptide: GSADGFRVAYMH
modifications: not fully specified (C-terminus)
notes: Linear analog of BP-2 in which the two cysteine residues are replaced by alanine; also called linear form of BP-2
binding result: no binding
